Measured values reported in PMC12207459, “A self-assembling surface layer flattens the cytokinetic furrow to aid cell division in an archaeon” (Proceedings of the National Academy of Sciences of the …, 2025).

Target: the molecule itself
Experiment: cryo-EM imaging of cells; unlabeled purified S-layer proteins added to live Vps4 E209Q ΔslaA cells, 75 °C, 1 h; lattice seen on the cell surface by cryo-EM

B1: purified SlaA from wild-type S. acidocaldarius, unlabeled (natural protein, Sulfolobus acidocaldarius, UniProt Q4J6E5 25-1424, looked up)
chain: ITTTALTPPVSAGGIQAYLLTGSGAPASGLVLFVVNVSNIQVSSSNVTNVISTVVSNIQINAKTENAQTGATTGSVTVRFPTSGYNAYYDSVDKVVFVVVSFLYPYTTTSVNIPLSYLSKYLPGLLTAQPYDETGAQVTSVSSTPFGSLIDTSTGQQILGTNPVLTSYNSYTTQANTNMQEGVVSGTLTSFTLGGQSFSGSTVPVILYAPFIFSNSPYQAGLYNPMQVNGNLGSLSSEAYYHPVIWGRALINTTLIDTYASGSVPFTFQLNYSVPGPLTINMAQLAWIASINNLPTSFTYLSYKFSNGYESFLGIISNSTQLTAGALTINPSGNFTINGKKFYVYLLVVGSTNSTTPVEYVTKLVVEYPSSTNFLPQGVTVTTSSNKYTLPVYEIGGPAGTTITLTGNWYSTPYTVQITVGSTPTLTNYVSQILLKAVAYEGINVSTTQSPYYSTAILSTPPSEISITGSSTITAQGKLTATSASATVNLLTNATLTYENIPLTQYSFNGIIVTPGYAAINGTTAMAYVIGALYNKTSDYVLSFAGSQEPMQVMNNNLTEVTTLAPFGLTLLAPSVPATETGTSPLQLEFFTVPSTSYIALVDFGLWGNLTSVTVSAYDTVNNKLSVNLGYFYGIVIPPSISTAPYNYQNFICPNNYVTVTIYDPDAVLDPYPSGSFTTSSLPLKYGNMNITGAVIFPGSSVYNPSGVFGYSNFNKGAAVTTFTYTAQSGPFSPVALTGNTNYLSQYADNNPTDNYYFIQTVNGMPVLMGGLSIVASPVSASLPSSTSSPGFMYLLPSAAQVPSPLPGMATPNYNLNIYITYKIDGATVGNNMINGLYVASQNTLIYVVPNGSFVGSNIKLTYTTTDYAVLHYFYSTGQYKVFKTVSVPNVTANLYFPSSTTPLYQLSVPLYLSEPYYGSPLPTYIGLGTNGTSLWNSPNYVLFGVSAVQQYLGFIKSISVTLSNGTTVVIPLTTSNMQTLFPQLVGQELQACNGTFQFGISITGLEKLLNLNVQQLNNSILSVTYHDYVTGETLTATTKLVALSTLSLVAKGAGVVEFLLTAYPYTGNITFAPPWFIAENVVKQPFMTYSDLQFAKTNPSAILSLSTVNITVVGLGGKASVYYNSTSGQTVITNIYGQTVATLSGNVLPTLTELAAGNGTFTGSLQFTIVPNNTVVQIPSSLTKTSFAVYTNGSLAIVLNGKAYSLGPAGLFLLPFVTYTGSAIGANATAIITVSDGVGTSTTQVPITAENFTPIRLAPFQVPAQVPLPNAPKLKYEYNGSIVITPQQQVLKIYVTSILPYPQEFQIQAFVYEASQFNVHTGSPTAAPVYFSYSAVRAYPALGIGTSVPNLLVYVQLQGISNLPAGKYVIVLSAVPFAGGPVLSEYPAQLIFTNVTLTQ
modifications: highly glycosylated
notes: S-layer protein SlaA of Sulfolobus acidocaldarius, locus saci2355, extracted from the S-layer of wild-type cells; Same preparation as m1 without the dye; it may also contain SlaB; also called unlabeled exogenous S-layer proteins; soluble S-layer proteins
  binding result: binds
